Patent publication US20020001806A1, “Caspase-3s splicing variant” (priority 2000, published 2002)
Entries after “also recorded” stand apart in the source; their conditions may differ.

B1: caspase-3s: novel splicing variant of caspase-3, C-terminal truncated, 182 amino acids (SEQ ID No. 2); tested as transfected pcDNA3 cDNA construct (protein, listed as Homo sapiens)
chain: MENTENSVDSKSIKNLEPKIIHGSESMDSGISLDNSYKMDYPEMGLCIIINNKNFHKSTGMTSRSGTDVDAANLRETFRNLKYEVRNKNDLTREEIVELMRDVSKEDHSKRSSFVCVLLSHGEEGIIFGTNGPVDLKKITNFFRGDRCRSLTGKPKLFIIQVIILGEIQRMAPGSSSRFVPC
B2: caspase-3: full length caspase-3 (32 kDa) cDNA in pcDNA3 vector transfected into 293 cells (protein, UniProt P42574 1-277, looked up)
chain: MENTENSVDSKSIKNLEPKIIHGSESMDSGISLDNSYKMDYPEMGLCIIINNKNFHKSTGMTSRSGTDVDAANLRETFRNLKYEVRNKNDLTREEIVELMRDVSKEDHSKRSSFVCVLLSHGEEGIIFGTNGPVDLKKITNFFRGDRCRSLTGKPKLFIIQACRGTELDCGIETDSGVDDDMACHKIPVEADFLYAYSTAPGYYSWRNSKDGSWFIQSLCAMLKQYADKLEFMHILTRVNRKVATEFESFSFDATFHAKKQIPCIVSMLTKELYFYH
modifications: full-length
notes: full length caspase-3 (32 kDa) cDNA in pcDNA3 vector transfected into 293 cells

Legend:
Type in all cases: cell-based, human
[1] = tested on: endogenous caspase-3; assay: Western blot (anti-caspase-3) of endogenous caspase-3 in untransfected 293 cells after IGAL treatment; settings: 5 μM IGAL, 48 hours
Method: (§1) FIG. 6. A. 293 cells were transfected with flag-tagged caspase-3, flag-tagged caspase-3s or pcDNA3 vector, followed by IGAL treatment for 16 hours or left untreated (control). Fifty microgram of total cellular protein was assayed for caspase-3 and caspase-3s expression using antibody specific for flag-tag. The asterisk (*) indicates the N-terminal flag-tag containing activated capase-3 (20 kDa). The uppermost and lowest short arrow denote the two additional bands, 40 kDa and 14 kDa, respectively. […] 293 cells were treated with 5 μM IGAL for 48 hours. Total cell lysates were isolated and assayed for caspase-3 expression by Western blotting. The blot was probed with anticaspase-3 antibody (Pharmingen). […]
Evidence that the levels of endogenous caspase-3 and caspase-3s are regulated by proteasome degradation was also sought. Untransfected 293 cells were subjected to IGAL treatment and the cell samples were analyzed on Western blots probed with anticapase-3 antibody (Pharmingen). […] In parallel, a faint immunoreactive band of 20 kDa (p20) was detected only in the presence of IGAL treatment (FIG. 6B).

[2] = tested on: caspase-3 and caspase-3s expression; assay: Western blot (anti-flag) of recombinant caspase-3 and caspase-3s in transfected 293 cells after IGAL treatment; settings: IGAL treatment 16 hours
Method: as §1
Proteasome appears to regulate caspase-3 potentially in two ways. […] To examine the effects of proteasome inhibitor on the expression of caspase-3 and caspase-3s, total cellular protein from transfected 293 cells treated with proteasome inhibitor IGAL were analyzed by Western blotting probed with the N-terminal antiflag antibody. […] In addition, we reproducibly detected two additional bands with a size of 40 kDa and 14 kDa, respectively, after IGAL treatment (FIG. 6B, lane 6). […]

[3] = tested on: 293 cells; assay: Cytotox 96 colorimetric LDH release cytotoxicity assay in transfected 293 cells; settings: for apoptosis / cell death (LDH release) induced by proteasome inhibitor I: 5 μM proteasome inhibitor I, 12 hours, vs vector
Method: The following experiments were performed to test the hypothesis that caspase-3s acts as a dominant negative isoform of caspase-3. The pcDNA empty vector, caspase-3, and caspase-3s constructs were transfected into 293 cells using the method described above (Sun et al., Supra., 1997). After 6 to 7 hours transfection, transfection medium was replaced with fresh medium containing 5 μM of proteasome inhibitor I (Z-Ile-Glu(otBu)-Ala-Leu-CHO) (Calbiochem). Cells were then incubated for 12 hours. Twenty-five microliter of the culture medium was subjected to cytotoxicity assay using the Cytotox 96 colorimetric LDH assay kit (Promega) according to manufacturer's instruction. Statistics were performed with t-test using Microsoft Excel analysis tools.
For control cells, lactate dehydrogenase (LDH) release in caspase-3 transfected cells was compared with both vector and caspase-3s transfected cells. For proteasome inhibitor treated cells, LDH release was compared between vector and caspase-3s transfected cells.

[4] = tested on: 293 cells; assay: DNA fragmentation ELISA (Cell Death Detection ELISA) in transfected 293 cells; settings: for apoptosis induced by staurosporine (DNA fragmentation): 0.5 μM staurosporine, 20 hours; for DNA fragmentation (basal apoptosis): untreated, vs vector and caspase-3s
Method: (§2) Human embryonal kidney 293 cells were seeded 1×10^5 into each well of a 24-well plate and transfected with caspase-3 and caspase-3s cDNA constructs by calcium phosphate method (Sun Y., Bian J., Wang Y., Jacobs C. Oncogene 1997;14:385-93;14: 385-393). Briefly, 500 nanogram of DNA was incubated in 0.25 M CaCl2 solution for 10 minutes at room temperature. The mixture was then incubated with 1×HEPES buffer (pH 6.88) for 15 minutes at room temperature before being added to the culture medium. After 6 to 7 hours transfection, transfection medium was replaced with fresh Opti-MEMI medium (GIBCO) containing 5 μM of Proteasome Inhibitor I (Z-Ile-Glu(otBu)-Ala-Leu-CHO) (Calbiochem) and incubated for 16 hours. For staurosporine treatment, cells were allowed to grow for 24 hours in serum containing medium after transfection. Cells then incubated with 0.5 μM staurosporine (Calbiochem) in Opti-MEMI medium for 20 hours.
DNA fragmentation ELISA was performed using the Cell Death Detection ELISA kit (Boehringer Mannheim) following the instruction provided by the supplier. Briefly, after 16 hours treatment with IGAL (Proteasome Inhibitor I), 293 cells were lysed by incubation with 500 μL of cell lysis buffer for 2 hours at room temperature. The lysate were then centrifuged at 200×g for 10 minutes. Twenty microliter of the supernatant were transferred into the streptavidin coated microtiter plate for analysis using the reagents provided with the assay kit. Statistical analyses were performed with student t-test using Microsoft Excel analysis tools.

[5] = tested on: PARP; assay: PARP cleavage to 85 kDa breakdown product by Western blot in transfected 293 cells; settings: for PARP cleavage (Western blot): IGAL treatment 16 hours, vs vector control; for PARP breakdown product (85 kDa), densitometric quantification: normalized to vector control, n=8
Method: as §2
Preparation of whole cell lysates and Western blotting were performed as previously described (McGinnis K. M., Gnegy M. E., Wang K. K. W. Endogenous bax translocation in SH-SY5Y human neuroblastoma cells and cerebellar granule neurons undergoing apoptosis. J. Neurochem. 1999;72:1899-1906; Huang Y., Domann F. E. Transcription factor AP-2 mRNA and DNA binding activity are constitutively expressed in SV40-immortalized but not normal human lung fibroblasts. Arch. Biochem. Biophys. 1999;364: 241-246). The blots were probed with antihuman caspase-3 p20 goat polyclonal antibody (Santa Cruz, CAT #sc-1226), antihuman caspase-3 rabbit polyclonal antibody (Pharmingen, CAT #65906E), antiflag monoclonal antibody (Sigma, CAT #F3165), or antihuman monoclonal PAPR antibody (Biomol Research Laboratories, Inc CAT #SA-250).
It is known that cleavage of caspase-3 substrates, such as poly(ADP)ribose polymerase (PARP), is prerequisite for apoptosis. Therefore, the effects of caspase-3s overexpression on PARP cleavage in both control and IGAL treated 293 was examined, along with caspase-3 overexpression as positive control. Cleavage of PARP to an immunoreactive breakdown product (85 kDa) was measured by Western blot.

Molecule | endogenous activated caspase-3 (p17) [1] | levels of endogenous full-length caspase-3 (p32) [1] | amount of recombinant caspase-3s ([2]; flag-tagged caspase-3s transfected 293 cells) | abundance of recombinant full length caspase-3 (32 kDa band) ([2]; flag-tagged caspase-3 transfected 293 cells) | apoptosis / cell death (LDH release) induced by proteasome inhibitor I [3] | apoptosis / cell death (LDH release) induced by proteasome inhibitor I ([3]; listed as Caspase-3s) | apoptosis induced by staurosporine (DNA fragmentation) [4] | DNA fragmentation (apoptosis) induced by IGAL ([4]; 5 μM IGAL, 16 hours, vs vector control and caspase-3, n=4) | PARP cleavage (Western blot) [5] | PARP cleavage (Western blot) ([5]; listed as Caspase-3s) | PARP breakdown product (85 kDa), densitometric quantification [5] | apoptosis (LDH release) ([3]; untreated condition, vs vector and caspase-3s transfected cells) | DNA fragmentation (basal apoptosis) [4] | DNA fragmentation (basal apoptosis) ([4]; listed as capase-3) | basal PARP cleavage (Western blot) ([5]; nontreated)
Z-Ile-Glu(otBu)-Ala-Leu-CHO [IGAL] | appearance of the 17 kDa activated caspase-3 (p17) | remain the same; also recorded: stabilized endogenous caspase-3 expression | dramatic increase | decrease in the abundance | – | – | – | – | – | – | – | – | – | – | –
B1 | – | – | – | – | significantly inhibited; also recorded: inhibits apoptotic cell death | inhibits cell death | no significant effect | partially but significantly inhibited apoptosis; also recorded: significantly (# p<0.05) inhibited DNA fragmentation | partially but significantly inhibited the cleavage of PARP | partially inhibited PARP cleavage | significantly decreased | – | – | – | –
B2 | – | – | – | – | underwent substantial apoptosis | – | did not reduce | – | enhanced by IGAL treatment | – | increased PARP cleavage | significantly increased apoptosis | significantly increased DNA fragmentation | induced basal apoptosis | increased basal PARP cleavage
